Source: patent EP1117419B1 (The University Of Southern California, dated 2010)

What was measured:
[1] = target: binding sites on unactivated human platelets; experiment: Scatchard analysis of CN binding to unactivated human platelets
[2] = target: human platelet membrane glycoprotein (GP)IIb/IIIa on human platelets (platelet rich plasma) (human, UniProt P08514 32-1039; P05106 27-788)
[3] = target: canine platelet (GP)IIb/IIIa on canine platelets (platelet rich plasma) (canine, UniProt Q9TUN8 32-1036; A0A8I3PMU9 158-919)

B1: contortrostatin (CN), native homodimer purified from Agkistrodon contortrix contortrix venom (ligand)
chain: DAPANPCCDAATCKLTTGSQCADGLCCDQCKFMKEGTVCRRARGDDLDDYCNGISAGCPRNPFHA
**Q.** For B1, which Kd [1] is on record?
**A.** The Kd was 37 nM.

**Q.** And the IC50 [2]?
**A.** The IC50 was 0.4 µg/mL.

**Q.** What about the IC50 [3] of the same binder?
**A.** The IC50 was 0.24 µg/mL.
